Assay results: article PMC8701324 (2021)

Target: MRG15 MRG domain, amino acids 155-323 (UniProt Q9UBU8-2 155-323)
Assay: FP

Chain of MRG15 MRG domain, amino acids 155-323 (Q9UBU8 194-362): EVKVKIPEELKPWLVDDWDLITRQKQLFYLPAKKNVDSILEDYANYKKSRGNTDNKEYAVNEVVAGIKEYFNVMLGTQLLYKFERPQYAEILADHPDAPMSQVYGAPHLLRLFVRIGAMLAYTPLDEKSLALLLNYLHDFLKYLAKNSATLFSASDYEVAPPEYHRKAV

B1: 6xHis-PALB2^597-630 (peptide)
chain: MLSLKQLLSFLSITDFQLPDEDFGPLKLEKVKSC
Ki: 9.8 nM
